# From PMC5778036
# Biological target: CCR5 expressed on the surface of pancreatic cancer cells (human (endogenous in AsPC-1, BxPC-3, MIA PaCa-2)) (UniProt P51681)
# Chain of UniProt P51681 (P51681 whole entry): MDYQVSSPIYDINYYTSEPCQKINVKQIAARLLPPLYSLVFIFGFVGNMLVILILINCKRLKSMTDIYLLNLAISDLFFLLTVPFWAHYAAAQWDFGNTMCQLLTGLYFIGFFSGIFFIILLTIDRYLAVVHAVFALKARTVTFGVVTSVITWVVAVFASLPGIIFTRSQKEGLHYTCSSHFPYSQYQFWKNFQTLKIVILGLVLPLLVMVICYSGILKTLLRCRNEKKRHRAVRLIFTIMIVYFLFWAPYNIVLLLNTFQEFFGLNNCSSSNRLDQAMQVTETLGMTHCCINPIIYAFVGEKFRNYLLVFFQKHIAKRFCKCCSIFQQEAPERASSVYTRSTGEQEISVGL
substance,measurement,value
CCL5 (CC chemokine ligand 5) recombinant protein (from UniProt P13501 24-91),"CCR5 mRNA (qRT-PCR) in AsPC-1 cells in presence of CCL5, fold against untreated; decreased by maraviroc",11 fold
same,"CCR5 mRNA (qRT-PCR) in BxPC-3 cells in presence of CCL5, fold against untreated; decreased by maraviroc",7 fold
same,"CCR5 mRNA (qRT-PCR) in MIA PaCa-2 cells in presence of CCL5, fold against untreated; decreased by maraviroc",4 fold
